Laboratory results: PMC9600919

Biological target: N-terminally 3× FLAG-tagged IglD from Francisella novicida (Francisella novicida) (UniProt Q7X3J2)
Assay: cryo-EM structure

## N-terminally 3× FLAG-tagged IglD from Francisella novicida (from UniProt Q7X3J2 1-398) (natural protein)
  stoichiometry N: 3
